{"source": "patent US20210292393A1", "about": "(published 2021)", "key": {"[1]": {"target": "T1, SARS-CoV-2 full length spike protein, wild type, expressed on the surface of transiently transfected CHO cells (SARS-CoV-2, UniProt P0DTC2 14-1273)", "T1 construct": "also called SARS-CoV-2 spike (S) protein; Wild-Type SARS-CoV-2", "test": "flow cytometry, CHO cells expressing full-length WT spike"}, "[2]": {"target": "T2, SARS-CoV-2 full length spike protein (wild type) (SARS-CoV-2, UniProt P0DTC2 14-1208)", "T2 construct": "also called SARS-CoV-2 spike; S protein", "test": "multiplexed bead assay, flow cytometry; columns A, B, D, G, H, I"}, "[3]": {"target": "T3, SARS-CoV-2 spike (S) protein, full length, wild type (SARS-CoV-2, UniProt P0DTC2 14-1208)", "T3 construct": "also called SARS-CoV-2 full length spike; full-length trimeric SARS-CoV-2 spike protein", "test": "multiplexed bead assay, flow cytometry"}}, "data": [{"binder": "antibody 432 (antibody, V domains shown) VH: QVQLQESGPGLVKPSQTLSLTCTVSGGSISSGGYYWNWIRQHPGKGLEWIGYIYDSGSTYYNPSLKSRLTLSIDTSQNQFSLRRTSVTAADTAVYYCARGRQYDYDRTGLQYYFDYWGQGTLVTVSS VL: EIVLTQSPGTLSLSPGERATLSCRASQSFSSSYLAWYQQKPGQAPRLLIYGASSRATGIPDRFSGSGSGTDFTLTISRLEPEDFAVYYCQQYGTSSLTFGGGTKVEIK", "values": [{"measurement": "binding result", "setting": "[1]", "result": "no binding"}]}, {"binder": "antibody 341 (antibody, V domains shown) VH: QLQLQESGPGLVKPSETLSLTCTVSGGSISSSSYYWGWIRQPPGKGLEWIGSIYYSGSTYYNPSLKSRVTISVDTSKNQFSLKLSSVTAADTAVYYCARRPLRYFDWLTNFDYWGQGTLVTVSS VL: EIVLTQSPATLSLSPGERATLSCRASQSVSSYLAWYQQKPGQAPRLLIYDASNRATGIPARFSGSGSGTDFTLTISSLEPEDFAVYYCQQRSNWPITFGQGTRLEIK", "values": [{"measurement": "binding result", "setting": "[2]", "result": "no binding"}]}, {"binder": "anti-SARS-CoV-2 antibody 474 (antibody, V domains shown) VH: EVQLVESGGGLVQPGGSLRLSCAASGFTFSSYWMHWVRQAPGKGLVWVSRINSDGSSTSYADSVKGRFTISRDNAKNTLYRQMNSLRAEDTAVYYCALGPLDIVGSYYYYGMDVWGQGTTVTVSS VL: NFMLTQPHSVSESPGKTVTISCTGSSGSIASNYVQWYQQRPGSAPTTVIYEDNQRPSGVPDRFSGSIDSSSNSASLTISGLKTEDEADYYCQSYDSSNQDVVFGGGTKLTVL", "values": [{"measurement": "binding result", "setting": "[3]", "result": "no binding"}]}]}
